# Target: crp_human CRP (UniProt P02741)
# Sequence (P02741 whole entry): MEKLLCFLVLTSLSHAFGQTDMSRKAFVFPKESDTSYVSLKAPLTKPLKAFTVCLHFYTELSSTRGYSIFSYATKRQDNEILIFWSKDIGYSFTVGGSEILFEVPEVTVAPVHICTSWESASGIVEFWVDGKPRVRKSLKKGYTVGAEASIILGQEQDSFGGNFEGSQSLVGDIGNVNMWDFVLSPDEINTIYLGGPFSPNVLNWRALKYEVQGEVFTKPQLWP
row,Substance,effect of a mutation on the interaction
1,"Collectin-12 (Homo sapiens), Q5KU26 R496A;K499A;K502A",disrupting interaction strength
2,"Collectin-12 (Homo sapiens), Q5KU26 R448A;R451A;R454A;K466A;K469A;K472A;R496A;K499A;K502A",decreasing interaction strength
3,"Collectin-12 (Homo sapiens), Q5KU26 R448A;R451A;R454A",decreasing interaction strength
4,"Collectin-12 (Homo sapiens), Q5KU26 K466A;K469A;K472A",with no effect

# From IntAct's records for PubMed 26922829
